According to patent US20140087995A1 (published 2014):
Numbered stars: 1 amine (or outer) side, 2 acyl side, 3 side chain; on linkers, the order of the positions; unused ones are H or OH. Bridge positions count the residues as written; N and C are the ends. Side chains are listed from the residue outwards. Ends that are not written are not given here. * marks the point of attachment. C20 diacid = O=C(O)CCCCCCCCCCCCCCCCCCC(=O)*; γGlu = O=C(O)[C@H](CCC(=O)[*:2])N[*:1]; AEEA = NCCOCCOCC(=O)O

Biological target: T1, human amylin 3(a) receptor (human calcitonin receptor co-expressed with RAMP-3) (human, UniProt P30988 25-474; O60896 24-148, limits assumed)
T1 sequence (looked up) 1: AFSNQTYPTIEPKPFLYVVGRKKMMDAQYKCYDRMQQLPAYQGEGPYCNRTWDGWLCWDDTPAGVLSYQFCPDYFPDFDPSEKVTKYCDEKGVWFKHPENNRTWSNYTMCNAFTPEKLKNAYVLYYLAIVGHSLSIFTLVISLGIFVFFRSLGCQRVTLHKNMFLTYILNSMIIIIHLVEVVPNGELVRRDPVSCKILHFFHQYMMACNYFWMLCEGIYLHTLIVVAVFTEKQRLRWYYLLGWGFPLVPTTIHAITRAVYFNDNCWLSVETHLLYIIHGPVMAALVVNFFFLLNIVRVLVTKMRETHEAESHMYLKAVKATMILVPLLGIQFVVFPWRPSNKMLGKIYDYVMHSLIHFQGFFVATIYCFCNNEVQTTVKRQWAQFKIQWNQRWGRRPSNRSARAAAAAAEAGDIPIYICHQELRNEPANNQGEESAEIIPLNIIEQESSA
T1 sequence (looked up) 2: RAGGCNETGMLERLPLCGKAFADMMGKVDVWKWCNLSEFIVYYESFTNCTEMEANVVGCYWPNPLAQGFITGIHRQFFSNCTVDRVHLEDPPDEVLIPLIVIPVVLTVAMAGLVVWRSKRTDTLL
Assay: cell-based or functional assay

B1: N^ε1-[2-[2-[2-[[(4S)-4-carboxy-4-(19-carboxynonadecanoylamino)butanoyl]amino]ethoxy]ethoxy]acetyl]-[Arg17,Pro21,Pro27,Pro31,His35]-h-amylin (peptide)
peptide: K([AEEA-γGlu-C20 diacid])CNTATCATQRLANFLRHSSPNFGAIPSSTPVGSHTY-NH2
modifications: disulfide 2-7; N-terminus assumed
SMILES: CC[C@H](C)[C@H](NC(=O)[C@H](C)NC(=O)CNC(=O)[C@H](Cc1ccccc1)NC(=O)[C@H](CC(N)=O)NC(=O)[C@@H]1CCCN1C(=O)[C@H](CO)NC(=O)[C@H](CO)NC(=O)[C@H](Cc1c[nH]cn1)NC(=O)[C@H](CCCNC(=N)N)NC(=O)[C@H](CC(C)C)NC(=O)[C@H](Cc1ccccc1)NC(=O)[C@H](CC(N)=O)NC(=O)[C@H](C)NC(=O)[C@H](CC(C)C)NC(=O)[C@H](CCCNC(=N)N)NC(=O)[C@H](CCC(N)=O)NC(=O)[C@@H](NC(=O)[C@H](C)NC(=O)[C@@H]1CSSC[C@H](NC(=O)[C@@H](N)CCCCNC(=O)COCCOCCNC(=O)CC[C@H](NC(=O)CCCCCCCCCCCCCCCCCCC(=O)O)C(=O)O)C(=O)N[C@@H](CC(N)=O)C(=O)N[C@@H]([C@@H](C)O)C(=O)N[C@@H](C)C(=O)N[C@@H]([C@@H](C)O)C(=O)N1)[C@@H](C)O)C(=O)N1CCC[C@H]1C(=O)N[C@@H](CO)C(=O)N[C@@H](CO)C(=O)N[C@H](C(=O)N1CCC[C@H]1C(=O)N[C@H](C(=O)NCC(=O)N[C@@H](CO)C(=O)N[C@@H](Cc1c[nH]cn1)C(=O)N[C@H](C(=O)N[C@@H](Cc1ccc(O)cc1)C(N)=O)[C@@H](C)O)C(C)C)[C@@H](C)O
notes: also called compound 57
  Ratio hCT/hAmylin funct. (hCTR EC50 over hAmylin-R EC50): 35
  hAmylin-R funct. EC50 (pM): 89 pM

B2: N^ε1-[2-[2-[2-[[(4S)-4-carboxy-4-(19-carboxynonadecanoylamino)butanoyl]amino]ethoxy]ethoxy]acetyl]-[His14,Arg17,Pro21,Pro27,Pro34]-h-amylin (peptide)
peptide: K([AEEA-γGlu-C20 diacid])CNTATCATQRLAHFLRHSSPNFGAIPSSTNVGPNTY-NH2
modifications: disulfide 2-7; N-terminus assumed
SMILES: CC[C@H](C)[C@H](NC(=O)[C@H](C)NC(=O)CNC(=O)[C@H](Cc1ccccc1)NC(=O)[C@H](CC(N)=O)NC(=O)[C@@H]1CCCN1C(=O)[C@H](CO)NC(=O)[C@H](CO)NC(=O)[C@H](Cc1c[nH]cn1)NC(=O)[C@H](CCCNC(=N)N)NC(=O)[C@H](CC(C)C)NC(=O)[C@H](Cc1ccccc1)NC(=O)[C@H](Cc1c[nH]cn1)NC(=O)[C@H](C)NC(=O)[C@H](CC(C)C)NC(=O)[C@H](CCCNC(=N)N)NC(=O)[C@H](CCC(N)=O)NC(=O)[C@@H](NC(=O)[C@H](C)NC(=O)[C@@H]1CSSC[C@H](NC(=O)[C@@H](N)CCCCNC(=O)COCCOCCNC(=O)CC[C@H](NC(=O)CCCCCCCCCCCCCCCCCCC(=O)O)C(=O)O)C(=O)N[C@@H](CC(N)=O)C(=O)N[C@@H]([C@@H](C)O)C(=O)N[C@@H](C)C(=O)N[C@@H]([C@@H](C)O)C(=O)N1)[C@@H](C)O)C(=O)N1CCC[C@H]1C(=O)N[C@@H](CO)C(=O)N[C@@H](CO)C(=O)N[C@H](C(=O)N[C@@H](CC(N)=O)C(=O)N[C@H](C(=O)NCC(=O)N1CCC[C@H]1C(=O)N[C@@H](CC(N)=O)C(=O)N[C@H](C(=O)N[C@@H](Cc1ccc(O)cc1)C(N)=O)[C@@H](C)O)C(C)C)[C@@H](C)O
notes: also called compound 68
  Ratio hCT/hAmylin funct. (hCTR EC50 over hAmylin-R EC50): 17.4
  hAmylin-R funct. EC50 (pM): 54 pM

B3: N^ε1-[2-[2-[2-[[(4S)-4-carboxy-4-(19-carboxynonadecanoylamino)butanoyl]amino]ethoxy]ethoxy]acetyl]-[His14,Arg17,Pro21,Pro27,Arg34]-h-amylin (peptide)
peptide: K([AEEA-γGlu-C20 diacid])CNTATCATQRLAHFLRHSSPNFGAIPSSTNVGRNTY-NH2
modifications: disulfide 2-7; N-terminus assumed
SMILES: CC[C@H](C)[C@H](NC(=O)[C@H](C)NC(=O)CNC(=O)[C@H](Cc1ccccc1)NC(=O)[C@H](CC(N)=O)NC(=O)[C@@H]1CCCN1C(=O)[C@H](CO)NC(=O)[C@H](CO)NC(=O)[C@H](Cc1c[nH]cn1)NC(=O)[C@H](CCCNC(=N)N)NC(=O)[C@H](CC(C)C)NC(=O)[C@H](Cc1ccccc1)NC(=O)[C@H](Cc1c[nH]cn1)NC(=O)[C@H](C)NC(=O)[C@H](CC(C)C)NC(=O)[C@H](CCCNC(=N)N)NC(=O)[C@H](CCC(N)=O)NC(=O)[C@@H](NC(=O)[C@H](C)NC(=O)[C@@H]1CSSC[C@H](NC(=O)[C@@H](N)CCCCNC(=O)COCCOCCNC(=O)CC[C@H](NC(=O)CCCCCCCCCCCCCCCCCCC(=O)O)C(=O)O)C(=O)N[C@@H](CC(N)=O)C(=O)N[C@@H]([C@@H](C)O)C(=O)N[C@@H](C)C(=O)N[C@@H]([C@@H](C)O)C(=O)N1)[C@@H](C)O)C(=O)N1CCC[C@H]1C(=O)N[C@@H](CO)C(=O)N[C@@H](CO)C(=O)N[C@H](C(=O)N[C@@H](CC(N)=O)C(=O)N[C@H](C(=O)NCC(=O)N[C@@H](CCCNC(=N)N)C(=O)N[C@@H](CC(N)=O)C(=O)N[C@H](C(=O)N[C@@H](Cc1ccc(O)cc1)C(N)=O)[C@@H](C)O)C(C)C)[C@@H](C)O
notes: also called compound 84
  Ratio hCT/hAmylin funct. (hCTR EC50 over hAmylin-R EC50): 32.5
  hAmylin-R funct. EC50 (pM): 169 pM

B4: N^ε1-[2-[2-[2-[[(4S)-4-carboxy-4-(19-carboxynonadecanoylamino)butanoyl]amino]ethoxy]ethoxy]acetyl]-[Arg17,Pro21,Pro27,Pro34,His35]-h-amylin (peptide)
peptide: K([AEEA-γGlu-C20 diacid])CNTATCATQRLANFLRHSSPNFGAIPSSTNVGPHTY-NH2
modifications: disulfide 2-7; N-terminus assumed
SMILES: CC[C@H](C)[C@H](NC(=O)[C@H](C)NC(=O)CNC(=O)[C@H](Cc1ccccc1)NC(=O)[C@H](CC(N)=O)NC(=O)[C@@H]1CCCN1C(=O)[C@H](CO)NC(=O)[C@H](CO)NC(=O)[C@H](Cc1c[nH]cn1)NC(=O)[C@H](CCCNC(=N)N)NC(=O)[C@H](CC(C)C)NC(=O)[C@H](Cc1ccccc1)NC(=O)[C@H](CC(N)=O)NC(=O)[C@H](C)NC(=O)[C@H](CC(C)C)NC(=O)[C@H](CCCNC(=N)N)NC(=O)[C@H](CCC(N)=O)NC(=O)[C@@H](NC(=O)[C@H](C)NC(=O)[C@@H]1CSSC[C@H](NC(=O)[C@@H](N)CCCCNC(=O)COCCOCCNC(=O)CC[C@H](NC(=O)CCCCCCCCCCCCCCCCCCC(=O)O)C(=O)O)C(=O)N[C@@H](CC(N)=O)C(=O)N[C@@H]([C@@H](C)O)C(=O)N[C@@H](C)C(=O)N[C@@H]([C@@H](C)O)C(=O)N1)[C@@H](C)O)C(=O)N1CCC[C@H]1C(=O)N[C@@H](CO)C(=O)N[C@@H](CO)C(=O)N[C@H](C(=O)N[C@@H](CC(N)=O)C(=O)N[C@H](C(=O)NCC(=O)N1CCC[C@H]1C(=O)N[C@@H](Cc1c[nH]cn1)C(=O)N[C@H](C(=O)N[C@@H](Cc1ccc(O)cc1)C(N)=O)[C@@H](C)O)C(C)C)[C@@H](C)O
notes: also called compound 58
  Ratio hCT/hAmylin funct. (hCTR EC50 over hAmylin-R EC50): 21.9
  hAmylin-R funct. EC50 (pM): 47 pM

B5: N^ε1-[2-[2-[2-[[(4S)-4-carboxy-4-(19-carboxynonadecanoylamino)butanoyl]amino]ethoxy]ethoxy]acetyl]-[Arg17,Pro21,Pro27,Pro31]-h-amylin (peptide)
peptide: K([AEEA-γGlu-C20 diacid])CNTATCATQRLANFLRHSSPNFGAIPSSTPVGSNTY-NH2
modifications: disulfide 2-7; N-terminus assumed
SMILES: CC[C@H](C)[C@H](NC(=O)[C@H](C)NC(=O)CNC(=O)[C@H](Cc1ccccc1)NC(=O)[C@H](CC(N)=O)NC(=O)[C@@H]1CCCN1C(=O)[C@H](CO)NC(=O)[C@H](CO)NC(=O)[C@H](Cc1c[nH]cn1)NC(=O)[C@H](CCCNC(=N)N)NC(=O)[C@H](CC(C)C)NC(=O)[C@H](Cc1ccccc1)NC(=O)[C@H](CC(N)=O)NC(=O)[C@H](C)NC(=O)[C@H](CC(C)C)NC(=O)[C@H](CCCNC(=N)N)NC(=O)[C@H](CCC(N)=O)NC(=O)[C@@H](NC(=O)[C@H](C)NC(=O)[C@@H]1CSSC[C@H](NC(=O)[C@@H](N)CCCCNC(=O)COCCOCCNC(=O)CC[C@H](NC(=O)CCCCCCCCCCCCCCCCCCC(=O)O)C(=O)O)C(=O)N[C@@H](CC(N)=O)C(=O)N[C@@H]([C@@H](C)O)C(=O)N[C@@H](C)C(=O)N[C@@H]([C@@H](C)O)C(=O)N1)[C@@H](C)O)C(=O)N1CCC[C@H]1C(=O)N[C@@H](CO)C(=O)N[C@@H](CO)C(=O)N[C@H](C(=O)N1CCC[C@H]1C(=O)N[C@H](C(=O)NCC(=O)N[C@@H](CO)C(=O)N[C@@H](CC(N)=O)C(=O)N[C@H](C(=O)N[C@@H](Cc1ccc(O)cc1)C(N)=O)[C@@H](C)O)C(C)C)[C@@H](C)O
notes: also called compound 49
  Ratio hCT/hAmylin funct. (hCTR EC50 over hAmylin-R EC50): 22.5
  hAmylin-R funct. EC50 (pM): 106 pM

B6: N^ε1-[2-[2-[2-[[(4S)-4-carboxy-4-(19-carboxynonadecanoylamino)butanoyl]amino]ethoxy]ethoxy]acetyl]-[Arg17,Pro21,Pro27,Pro34]-h-amylin (peptide)
peptide: K([AEEA-γGlu-C20 diacid])CNTATCATQRLANFLRHSSPNFGAIPSSTNVGPNTY-NH2
modifications: disulfide 2-7; N-terminus assumed
SMILES: CC[C@H](C)[C@H](NC(=O)[C@H](C)NC(=O)CNC(=O)[C@H](Cc1ccccc1)NC(=O)[C@H](CC(N)=O)NC(=O)[C@@H]1CCCN1C(=O)[C@H](CO)NC(=O)[C@H](CO)NC(=O)[C@H](Cc1c[nH]cn1)NC(=O)[C@H](CCCNC(=N)N)NC(=O)[C@H](CC(C)C)NC(=O)[C@H](Cc1ccccc1)NC(=O)[C@H](CC(N)=O)NC(=O)[C@H](C)NC(=O)[C@H](CC(C)C)NC(=O)[C@H](CCCNC(=N)N)NC(=O)[C@H](CCC(N)=O)NC(=O)[C@@H](NC(=O)[C@H](C)NC(=O)[C@@H]1CSSC[C@H](NC(=O)[C@@H](N)CCCCNC(=O)COCCOCCNC(=O)CC[C@H](NC(=O)CCCCCCCCCCCCCCCCCCC(=O)O)C(=O)O)C(=O)N[C@@H](CC(N)=O)C(=O)N[C@@H]([C@@H](C)O)C(=O)N[C@@H](C)C(=O)N[C@@H]([C@@H](C)O)C(=O)N1)[C@@H](C)O)C(=O)N1CCC[C@H]1C(=O)N[C@@H](CO)C(=O)N[C@@H](CO)C(=O)N[C@H](C(=O)N[C@@H](CC(N)=O)C(=O)N[C@H](C(=O)NCC(=O)N1CCC[C@H]1C(=O)N[C@@H](CC(N)=O)C(=O)N[C@H](C(=O)N[C@@H](Cc1ccc(O)cc1)C(N)=O)[C@@H](C)O)C(C)C)[C@@H](C)O
notes: also called compound 50
  Ratio hCT/hAmylin funct. (hCTR EC50 over hAmylin-R EC50): 17.4
  hAmylin-R funct. EC50 (pM): 38 pM
